From patent US20210379110A1 (LENTIGEN TECHNOLOGY, published 2021)
Substitutions are numbered along the chain they refer to. Blank lines part the entries; values can stand above or below the binder they belong to.

How the values were obtained:
[1] = target: T1, recombinant human CD19 (labeled) (human, UniProt P15391 20-291, limits assumed); assay: flow cytometry of yeast-displayed scFv with decreasing amounts of labeled CD19
T1 construct: Fluorescently labeled antigen titrated on yeast; The sorting steps used CD19-Fc/Anti-Hu-Fc, so the labeled antigen may be the Fc fusion; also called labeled CD19; recombinant human CD19 protein
T1 sequence (looked up): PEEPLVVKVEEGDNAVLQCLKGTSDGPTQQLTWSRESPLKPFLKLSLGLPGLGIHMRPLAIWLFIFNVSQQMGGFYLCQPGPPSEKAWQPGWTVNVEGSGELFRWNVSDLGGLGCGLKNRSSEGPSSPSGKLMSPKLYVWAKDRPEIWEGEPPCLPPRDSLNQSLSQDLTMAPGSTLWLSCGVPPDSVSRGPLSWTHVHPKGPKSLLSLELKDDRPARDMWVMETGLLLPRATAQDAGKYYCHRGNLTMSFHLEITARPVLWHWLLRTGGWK
Method: To increase the affinity of m19217, a yeast-display m19217 mutant scFv library was created by using error-prone PCR to create random point mutations in scFv gene sequences. After electroporation, the resulting mutant library was then grown overnight at 30° C. for 16 hours in SDCAA medium and then switched into SGCAA medium at 30° C. for another 16 hours. The mutant library was then sorted through MACS (immunomagentic column, Miltenyi Biotec) with CD19-Fc as the capture antigen to downsize the library and to increase the population of mutants that could bind to CD19-Fc. The strongest binders were then selected by double staining the pools with Anti-c-Myc-Alexa 488 and CD19-Fc/Anti-Hu-Fc and selecting for the binders that had the highest binding affinities as well as c-Myc expression levels. This process was then repeated two more times, until flow cytometry of yeast particles with fluorescently tagged antigen yielded average binding affinities of the mutant pools that were increased over the starting construct. Binding affinities were estimated by flow cytometry of yeast pools using decreasing amounts of labeled CD19.

[2] = target: T2, TSLPR-Fc peptide (R&D systems) (UniProt Q9HC73 25-231); assay: flow cytometry, CAR T cells stained with TSLPR-Fc then anti-Fc AF647
T2 construct: Bought reagent (R&D systems); also called TSLPR-Fc reagent; not shown: Fc part of the bought reagent
T2 sequence (looked up): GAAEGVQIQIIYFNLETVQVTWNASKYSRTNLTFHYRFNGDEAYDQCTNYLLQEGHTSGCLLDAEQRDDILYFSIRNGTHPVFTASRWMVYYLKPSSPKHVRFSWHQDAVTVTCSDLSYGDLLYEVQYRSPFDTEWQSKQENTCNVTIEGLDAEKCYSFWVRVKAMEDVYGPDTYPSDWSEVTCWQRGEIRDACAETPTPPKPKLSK
Method: Flow cytometric analysis was performed to detect the CAR molecule surface expression. Half million of harvested primary T cells were washed and stained with cold AutoMACS buffer supplemented with 0.5% bovine serum albumin (Miltenyi Biotec, Bergisch Gladbach, Germany), and resuspended in 200 ul Running Buffer before acquired by MACSQuant®10 Analyzer (Miltenyi Biotec Bergisch Gladbach, Germany). For CAR surface expression, TSLPR Fc, CD19Fc and CD22Fc peptide (R&D systems, Minneapolis, Minn.) were used followed anti Fc-AF647 (Jackson ImmunoResearch, West Grove, Pa.). T cell subtypes was further identified with anti-CD4 antibody conjugated to VioBlue fluorophore (Miltenyi Biotec Bergisch Gladbach, Germany). Dead cells in all studies were excluded by 7AAD staining (BD Biosciences, San Jose, Calif.). Flow data were analyzed with MACSQuantify software.
Specific detection of each scFv domain within the CAR structure was facilitated by CAR T cell staining with TSLPR-Fc peptide, or CD19-Fc peptide, followed by a secondary staining with anti-Fc AF647-labeled reagent, and fluorescence was detected in the APC channel. In CAR construct D0101, in which CD19 scFv was membrane-proximal and the TSLPR scFv was membrane-distal, the TSLPR scFv was detected at 44% of the transduced cells, and CD19 scFv was detected at 31%. In CAR construct D0102 with the reverse binder orientation (i.e. the TSLPR scFv membrane-proximal, and CD19 scFv membrane-distal), the detection levels were 85% and 75% for scFv TSLPR and CD19, respectively (FIG. 2).

B1: human anti-CD19 ScFv binder M19217 (founder clone) (scFv)
chain: EVQLVQSGAEVKKPGASVKVSCKASGYTFTSYYMHWVRQAPGQGLEWMGIINPSGGSTSYAQKFQGRVTMTRDTSTSTVYMELSSLRSEDTAVYYCARSDRGITATDAFDIWGQGTMVTVSSGGGGSGGGGSGGGGSQSVLTQPPSVSVAPGQTAKITCGGSDIGNKNVHWYQQKPGQAPVLVVYDDYDRPSGIPERFSGSNSGDAATLTISTVEVGDEADYFCQVWDSSGDPYWVFGGGTQLTVLG
- EC50 [1]: 0.5 µg/mL

B5: human anti-CD19 ScFv binder M19217-2 (scFv)
chain: B1 chain with L45F, I50L, G56S, S85N, S148P, T158I, S229G
- EC50 [1]: < 0.01 µg/mL

B8: D0102 (EF-1a-CD19 (19217_1)-TSLPR CD8 BBz) (other)
chain: EVQLVQSGAEVKKPGASVKVSCKASGYTFTSYYMHWVRQAPGQGLEWMGLINPSGGSTSYAQKFQGRVTMTRDTSTSTVYMELSSLRSEDTAVYYCARSDRGITATDAFDIWGQGTMVTVSSGGGGSGGGGSGGGGSQSVLTQPPSVSVAPGRMAKITCGGSDIGNKNVHWYQQKPGQAPVLVVYDDYDRPSGIPERFSGSNSGDAATLTISTVEVGDEADYFCQVWDGSGDPYWMFGGGTQLTVLGGGGGSGGGGSGGGGSGGGGSGGGGSQVTLKESGPGILKPSQTLSLTCSFSGFSLSTSGMGVGWIRQPSGKGLEWLAHIWWDDDKYYNPSLKSQLTISKDTSRNQVFLKITSVDTADTATYYCSRRPRGTMDAMDYWGQGTSVTVSSGGGGSGGGGSGGGGSDIVMTQAASSLSASLGDRVTISCRASQDISKYLNWYQQKPDGTVKLLIYYTSRLHSGVPSRFSGSGSGTDYSLTIRNLEQEDIATYFCQQVYTLPWTFGGGTKLEIKAAATTTPAPRPPTPAPTIASQPLSLRPEACRPAAGGAVHTRGLDFACDIYIWAPLAGTCGVLLLSLVITLYCKRGRKKLLYIFKQPFMRPVQTTQEEDGCSCRFPEEEEGGCELRVKFSRSADAPAYQQGQNQLYNELNLGRREEYDVLDKRRGRDPEMGGKPRRKNPQEGLYNELQKDKMAEAYSEIGMKGERRRGKGHDGLYQGLSTATKDTYDALHMQALPPR
notes: also called CAR 19-TSLPR BBz; tandem D0102 CD19×TSLPR CAR
- percent of transduced T cells stained by antigen-Fc [2]: 85%

B9: human anti-CD19 ScFv binder M19217-1 (scFv, V domains shown)
VH: EVQLVQSGAEVKKPGASVKVSCKASGYTFTSYYMHWVRQAPGQGLEWMGLINPSGGSTSYAQKFQGRVTMTRDTSTSTVYMELSSLRSEDTAVYYCARSDRGITATDAFDIWGQGTMVTVSS
VL: QSVLTQPPSVSVAPGRMAKITCGGSDIGNKNVHWYQQKPGQAPVLVVYDDYDRPSGIPERFSGSNSGDAATLTISTVEVGDEADYFCQVWDGSGDPYWMFGGGTQLTVLG
notes: also called scFv of LTG2065
- EC50 [1]: < 0.01 µg/mL

B10: D0101 (EF-1a-TSLPR-CD19 (19217_1) CD8 BBz) (other)
chain: QVTLKESGPGILKPSQTLSLTCSFSGFSLSTSGMGVGWIRQPSGKGLEWLAHIWWDDDKYYNPSLKSQLTISKDTSRNQVFLKITSVDTADTATYYCSRRPRGTMDAMDYWGQGTSVTVSSGGGGSGGGGSGGGGSDIVMTQAASSLSASLGDRVTISCRASQDISKYLNWYQQKPDGTVKLLIYYTSRLHSGVPSRFSGSGSGTDYSLTIRNLEQEDIATYFCQQVYTLPWTFGGGTKLEIKGGGGSGGGGSGGGGSGGGGSGGGGSEVQLVQSGAEVKKPGASVKVSCKASGYTFTSYYMHWVRQAPGQGLEWMGLINPSGGSTSYAQKFQGRVTMTRDTSTSTVYMELSSLRSEDTAVYYCARSDRGITATDAFDIWGQGTMVTVSSGGGGSGGGGSGGGGSQSVLTQPPSVSVAPGRMAKITCGGSDIGNKNVHWYQQKPGQAPVLVVYDDYDRPSGIPERFSGSNSGDAATLTISTVEVGDEADYFCQVWDGSGDPYWMFGGGTQLTVLGAAATTTPAPRPPTPAPTIASQPLSLRPEACRPAAGGAVHTRGLDFACDIYIWAPLAGTCGVLLLSLVITLYCKRGRKKLLYIFKQPFMRPVQTTQEEDGCSCRFPEEEEGGCELRVKFSRSADAPAYQQGQNQLYNELNLGRREEYDVLDKRRGRDPEMGGKPRRKNPQEGLYNELQKDKMAEAYSEIGMKGERRRGKGHDGLYQGLSTATKDTYDALHMQALPPR
notes: also called CAR TSLPR-19 BBz; tandem D0101 TSLPR×CD19 CAR
- percent of transduced T cells stained by antigen-Fc [2]: 44%

Next, values leading:

- EC50 [1]: < 0.01 µg/mL
B2: human anti-CD19 ScFv binder M19217-38 (scFv)
chain: B1 chain with K13R, Q43R, I50L, K63E, T74M, T104S, T154M, D189N, S229G, V245D

- EC50 [1]: < 0.01 µg/mL
B3: human anti-CD19 ScFv binder M19217-40 (scFv)
chain: B1 chain with K13R, E46V, I50L, I157T, F223V, S229G

- EC50 [1]: < 0.01 µg/mL
B4: human anti-CD19 ScFv binder M19217-7 (scFv)
chain: B1 chain with K12N, I50M, A105S, V149L, D189N, A206S, S229G

- EC50 [1]: < 0.01 µg/mL
B6: human anti-CD19 ScFv binder M19217-23 (scFv)
chain: B1 chain with S31G, M48I, I50L, A61E, T69A, N166D, S229G, S230I

- EC50 [1]: < 0.01 µg/mL
B7: human anti-CD19 ScFv binder M19217-29 (scFv)
chain: B1 chain with I50M, V169A, P195S, S229G, Y234F
